Activity of purified enzyme (mUI/mg): Hydroxyisobutyryl-CoA mutase (with 3-Hydroxybutyryl-CoA 1 mM in aerobic conditions), Activity of purified enzyme (mUI/mg): Hydroxyisobutyryl-CoA mutase (with 3-Hydroxybutyryl-CoA 1 mM in anaerobic conditions) and Activity of purified enzyme (mUI/mg): Hydroxyisobutyryl-CoA mutase (with 3-Hydroxybutyryl-CoA 10 mM in anaerobic conditions) data for 1 protein are collected here from patent US20110151530.

In the data set the test system is IcmBmp, icmB gene product of Methylibium petroleiphilum (subunit of hydroxyisobutyryl-CoA mutase).

B1: IcmAmp, icmA gene product of Methylibium petroleiphilum (subunit of hydroxyisobutyryl-CoA mutase) (enzyme)
chain: MTWLEPQIKSQLQSERKDWEANEVGAFLKKAPERKEQFHTIGDFPVQRTYTAADIADTPLEDIGLPGRYPFTRGPYPTMYRSRTWTMRQIAGFGTGEDTNKRFKYLIAQGQTGISTDFDMPTLMGYDSDHPMSDGEVGREGVAIDTLADMEALLADIDLEKISVSFTINPSAWILLAMYVALGEKRGYDLNKLSGTVQADILKEYMAQKEYIYPIAPSVRIVRDIITYSAKNLKRYNPINISGYHISEAGSSPLQEAAFTLANLITYVNEVTETGMHVDEFAPRLAFFFVSQGDFFEEVAKFRALRRCYAKIMKERFGAKNPESMRLRFHCQTAAATLTKPQYMVNVVRTSLQALSAVLGGAQSLHTNGYDEAFAIPTEDAMKMALRTQQIIAEESGVADVIDPLGGSYYVEALTTEYEKKIFEILEEVEKRGGTIKLIEQGWFQKQIADFAYETALRKQSGQKPVIGVNRFVENEEDVKIEIHPYDNTTAERQISRTRRVRAERDEAKVQAMLDQLVAVAKDESQNLMPLTIELVKAGATMGDIVEKLKGIWGTYRETPVF
B1 showed an Activity of purified enzyme (mUI/mg): Hydroxyisobutyryl-CoA mutase (with 3-Hydroxybutyryl-CoA 1 mM in aerobic conditions) of 2 mUI/mg, an Activity of purified enzyme (mUI/mg): Hydroxyisobutyryl-CoA mutase (with 3-Hydroxybutyryl-CoA 1 mM in anaerobic conditions) of 46 mUI/mg and an Activity of purified enzyme (mUI/mg): Hydroxyisobutyryl-CoA mutase (with 3-Hydroxybutyryl-CoA 10 mM in anaerobic conditions) of 223 mUI/mg.
